Assay results: the supplement of paper PMC11316812
± gives the standard deviation of the averaged measurements.

What was measured:
MCF7 = assay: percentage of EdU-negative (G0-arrested) nuclei per well, 72 h; higher = more G0 arrest; details: reference: sequence is the full UniProt precursor, the tested protein was the secreted form or ectodomain
hTERT-HMEC = assay: as above; details: reference: sequence is the full UniProt precursor, the tested protein was the secreted form or ectodomain
[1] = protein concentration 0.0225 µM
[2] = protein concentration 0.00875 µM
[3] = protein concentration 0.0875 µM
[4] = protein concentration 0.0155 µM
[5] = protein concentration 0.0357143 µM
[6] = protein concentration 0.357143 µM
[7] = protein concentration 0.01075 µM
[8] = protein concentration 0.1075 µM
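Also: secreted proteins added to cultured cells, EdU pulse at the end, nuclei found by Hoechst imaging, EdU status from nuclear versus surrounding ring intensity ratio, PBS as neutral control.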

**Q.** For “MVNLAAMVWRRLLRKRWVLALVFGLSLVYFLSSTFKQEERAVRDRNLLQVHDHNQPIPWKVQFNLGNSSRPSNQCRNSIQGKHLITDELGYVCERKDLLVNGCCNVNVPSTKQYCCDGCWPNGCCSAYEYCVSCCLQPNKQLLLERFLNRAAVAFQNLFMAVEDHFELCLAKCRTSSQSVQHENTYRDPIAKYCYGESPPELFPA [Q9H741]”, which “percentage of EdU-negative” value (MCF7; [1]) is on record?
**A.** 26.4 ± 1.1%

**Q.** What about the “percentage of EdU-negative” value (MCF7; protein concentration 0.225 µM) of the same sequence?
**A.** 27 ± 2.9%

**Q.** And the “percentage of EdU-negative” value (hTERT-HMEC; [1])?
**A.** 5.34 ± 0.37%

**Q.** And the “percentage of EdU-negative” value (hTERT-HMEC; protein concentration 0.225 µM)?
**A.** 7.52 ± 0.6%

**Q.** “MVPAAGALLWVLLLNLGPRAAGAQGLTQTPTEMQRVSLRFGGPMTRSYRSTARTGLPRKTRIILEDENDAMADADRLAGPAAAELLAATVSTGFSRSSAINEEDGSSEEGVVINAGKDSTSRELPSATPNTAGSSSTRFIANSQEPEIRLTSSLPRSPGRSTEDLPGSQATLSQWSTPGSTPSRWPSPSPTAMPSPEDLRLVLMPWGPWHCHCKSGTMSRSRSGKLHGLSGRLRVGALSQLRTEHKPCTYQQCPCNRLREECPLDTSLCTDTNCASQSTTSTRTTTTPFPTIHLRSSPSLPPASPCPALAFWKRVRIGLEDIWNSLSSVFTEMQPIDRNQR [Q9BUN1]” was tested. Which “percentage of EdU-negative” value (MCF7; [2]) did it give?
**A.** 25.2 ± 0.46%

**Q.** And the “percentage of EdU-negative” value (MCF7; [3])?
**A.** 26.9 ± 2.7%

**Q.** What about the “percentage of EdU-negative” value (hTERT-HMEC; [2]) of the same sequence?
**A.** 4.62 ± 0.76%

**Q.** What about the “percentage of EdU-negative” value (hTERT-HMEC; [3]) of the same sequence?
**A.** 10.6 ± 1.3%

**Q.** What does the source list for “MVPEEEPQDREKGLWWFQLKVWSMAVVSILLLSVCFTVSSVVPHNFMYSKTVKRLSKLREYQQYHPSLTCVMEGKDIEDWSCCPTPWTSFQSSCYFISTGMQSWTKSQKNCSVMGADLVVINTREEQDFIIQNLKRNSSYFLGLSDPGGRRHWQWVDQTPYNENVTFWHSGEPNNLDERCAIINFRSSEEWGWNDIHCHVPQKSICKMKKIYI [Q8WTT0]”?
**A.** percentage of EdU-negative (MCF7; [1]): 27.712 ± 0.0085%; percentage of EdU-negative (MCF7; protein concentration 0.225 µM): 26.5 ± 0.9%; percentage of EdU-negative (hTERT-HMEC; [1]): 4.78 ± 0.84%; percentage of EdU-negative (hTERT-HMEC; protein concentration 0.225 µM): 4.64 ± 1%

**Q.** With “MVPEVRVLSSLLGLALLWFPLDSHARARPDMFCLFHGKRYSPGESWHPYLEPQGLMYCLRCTCSEGAHVSCYRLHCPPVHCPQPVTEPQQCCPKCVEPHTPSGLRAPPKSCQHNGTMYQHGEIFSAHELFPSRLPNQCVLCSCTEGQIYCGLTTCPEPGCPAPLPLPDSCCQACKDEASEQSDEEDSVQSLHGVRHPQDPCSSDAGRKRGPGTPAPTGLSAPLSFIPRHFRPKGAGSTTVKIVLKEKHKKACVHGGKTYSHGEVWHPAFRAFGPLPCILCTCEDGRQDCQRVTCPTEYPCRHPEKVAGKCCKICPEDKADPGHSEISSTRCPKAPGRVLVHTSVSPSPDNLRRFALEHEASDLVEIYLWKLVKGIFHLTQIKKVRKQDFQKEAQHFRLLAGPHEGHWNVFLAQTLELKVTASPDKVTKT [Q6WN34]” as the sequence, how does the “percentage of EdU-negative” value (MCF7; [4]) read?
**A.** 25.2 ± 1.1%

**Q.** And the “percentage of EdU-negative” value (MCF7; protein concentration 0.155 µM)?
**A.** 27.3 ± 1.6%

**Q.** What about the “percentage of EdU-negative” value (hTERT-HMEC; [4]) of the same sequence?
**A.** 5.6 ± 0.62%

**Q.** And the “percentage of EdU-negative” value (hTERT-HMEC; protein concentration 0.155 µM)?
**A.** 7.92 ± 0.96%

**Q.** Which results are given for “MVPKLFTSQICLLLLLGLLAVEGSLHVKPPQFTWAQWFETQHINMTSQQCTNAMQVINNYQRRCKNQNTFLLTTFANVVNVCGNPNMTCPSNKTRKNCHHSGSQVPLIHCNLTTPSPQNISNCRYAQTPANMFYIVACDNRDQRRDPPQYPVVPVHLDRII”?
**A.** percentage of EdU-negative (MCF7; [5]): 24.9 ± 1.8%; percentage of EdU-negative (MCF7; [6]): 27 ± 0.65%; percentage of EdU-negative (hTERT-HMEC; [5]): 4.435 ± 0.01%; percentage of EdU-negative (hTERT-HMEC; [6]): 5.25 ± 0.32%

**Q.** How did the “percentage of EdU-negative” value (MCF7; protein concentration 0.022 µM) turn out when “MVPKLFTSQICLLLLLGLMGVEGSLHARPPQFTRAQWFAIQHISLNPPRCTIAMRAINNYRWRCKNQNTFLRTTFANVVNVCGNQSIRCPHNRTLNNCHRSRFRVPLLHCDLINPGAQNISNCTYADRPGRRFYVVACDNRDPRDSPRYPVVPVHLDTTI” was run?
**A.** 26.3 ± 2.1%

**Q.** What about the “percentage of EdU-negative” value (MCF7; protein concentration 0.22 µM) of the same sequence?
**A.** 25.35 ± 0.13%

**Q.** And the “percentage of EdU-negative” value (hTERT-HMEC; protein concentration 0.022 µM)?
**A.** 5.32 ± 0.8%

**Q.** What about the “percentage of EdU-negative” value (hTERT-HMEC; protein concentration 0.22 µM) of the same sequence?
**A.** 6.25 ± 2.1%

**Q.** With “MVPRIFAPAYVSVCLLLLCPREVIAPAGSEPWLCQPAPRCGDKIYNPLEQCCYNDAIVSLSETRQCGPPCTFWPCFELCCLDSFGLTNDFVVKLKVQGVNSQCHSSPISSKCESRRRFP [Q6UWQ7]” as the sequence, how does the “percentage of EdU-negative” value (MCF7; [7]) read?
**A.** 24.7 ± 0.71%

**Q.** What about the “percentage of EdU-negative” value (MCF7; [8]) of the same sequence?
**A.** 25.6 ± 1.1%

**Q.** What about the “percentage of EdU-negative” value (hTERT-HMEC; [7]) of the same sequence?
**A.** 5.54 ± 1.2%

**Q.** And the “percentage of EdU-negative” value (hTERT-HMEC; [8])?
**A.** 6.18 ± 1.3%
